As usually defined, the Km is the concentration of substrate that gives half-maximal velocity.

The values below come from PMC3818285, “Increased Biomass, Seed Yield and Stress Tolerance Is Conferred in Arabidopsis by a Novel Enzyme from the Resurrection Grass Sporobolus stapfianus That Glycosylates the Strigolactone Analogue GR24” (PLoS ONE, 2013).

Substrate in the data set: [H][C@]12Cc3ccccc3[C@@]1([H])OC(=O)/C2=C/O[C@@H]1C=C(C)C(=O)O1
The data set can be described thus: coupled enzyme assay (NADH oxidation), Lineweaver-Burk plot. The format is biochemical, Sporobolus stapfianus. As to conditions: pH 7.4, leaf protein extract 25 µg, background without substrate subtracted, vector-only control extract.

B1: SDG8i (Sporobolus stapfianus) (protein)
chain: MTKTVVLYPIRGAGHLTPMIQLARLFLQHGGFNVTVAIGSSPEDSDFSALVARAAAANPSVTFHILPQPSSTPDGSNTDVTPKHKHPVVHLFDTLGAMNAPLRDFLRSLPAVDALVVDMFCYDALDVAAELELPAYFLYASGAGDLAVFLNLPSARAGMTTSFAELGDTLLTLPGAPPFKASDLPADAINDNEVARCTRRMFERMPESHGILVNSFEALETRAVRALRDGLCVPDRATPPIYCIGPLVSGGGGEKEHECLRWLDAQPDNSVVFLCFGSMGTFSKKQLHDIAVGLEKSEQRFLWVVRSPRSDDHKFGEPRPELDLDAFLRDGFLERTKERGLVLKSWAPQVDVLHHRATGAFVTHCGWNSTLEGIMAGIPLLCWPLYAEQRMNKVFIVDELKLGVEMRGYNQEVVKAEEVESKVRWVLESEAGQAIRERVLAMKDKAAEALKEGGPSHVEFVKFLKDLEAVGRP
notes: unpurified leaf protein extract; no tag stated
Take B1: the Km stood at 349 µM.
